{"source": "paper PMC4935968", "about": "“Engineering biosynthesis of the anticancer alkaloid noscapine in yeast” (Nature Communications, 2016)", "binders": {"B1": {"name": "Ps6OMT with T7 tag (enzyme, Papaver somniferum, UniProt Q6WUC1 1-346, looked up)", "chain": "METVSKIDQQNQAKIWKQIYGFAESLVLKCAVQLEIAETLHNNVKPMSLSELASKLPVAQPVNEDRLFRIMRYLVHMELFKIDATTQKYSLAPPAKYLLRGWEKSMVDSILCINDKDFLAPWHHLGDGLTGNCDAFEKALGKSIWVYMSVNPEKNQLFNAAMACDTRLVTSALANECKSIFSDGISTLVDVGGGTGTAVKAISKAFPDIKCTIYDLPHVIADSPEIPNITKISGDMFKSIPSADAIFMKCILHDWNDDECIQILKRCKEALPKGGKVIIVDVVIDMDSTHPYAKIRLTLDLDMMLNTGGKERTKEEWKTLFDAAGFASHKVTQISAVQSVIEAYPY", "notes": "norcoclaurine 6-O-methyltransferase from Papaver somniferum (Ps6OMT); also called norcoclaurine 6-O-methyltransferase from P. somniferum; source: E. coli, co-transformed with pCS3306 (His-tagged PsMT2) and pCS3534; complex purified by a similar procedure as PsMT2/PsMT3 (Ni-NTA agarose, then T7 tag antibody agarose); not shown: T7 tag, C-terminal, kept"}}, "molecular_target": "T1, hexa-histidine tagged PsMT2 (Papaver somniferum, UniProt I3PLQ6 1-356)", "T1 construct": "PsMT2, O-methyltransferase of the noscapine gene cluster of Papaver somniferum; gene codon-optimised for S. cerevisiae, amplified with primers PsMT2-pET-F/R and inserted into pET28a; Printed mass of the His-tagged protein is 40.09 kDa; also called His-tagged PsMT2; source: E. coli BL21(DE3), co-expressed with T7-tagged PsMT3 or Ps6OMT; complex purified (Ni-NTA agarose, then T7 tag antibody …)", "T1 sequence (looked up)": "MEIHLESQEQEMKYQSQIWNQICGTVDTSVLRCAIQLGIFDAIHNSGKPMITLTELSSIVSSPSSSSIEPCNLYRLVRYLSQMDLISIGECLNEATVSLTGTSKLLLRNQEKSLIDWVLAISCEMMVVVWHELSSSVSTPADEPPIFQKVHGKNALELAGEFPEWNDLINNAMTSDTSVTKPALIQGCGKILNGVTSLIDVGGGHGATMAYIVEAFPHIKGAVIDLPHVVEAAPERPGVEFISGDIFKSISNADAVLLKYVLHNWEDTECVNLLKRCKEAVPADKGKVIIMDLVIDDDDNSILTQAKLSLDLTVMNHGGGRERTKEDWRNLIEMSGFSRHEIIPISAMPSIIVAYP", "test": "pull-down; tandem affinity co-purification from lysate of E. coli co-expressing both proteins: Ni-NTA agarose (His-tagged PsMT2), eluate then on T7 tag antibody agarose (T7-tagged partner); product analysed by SDS-PAGE and western blot with Anti-6X His tag and Anti-T7 tag antibodies", "settings": "partners not purified"}
{"binder": "B1", "values": [{"measurement": "binding result", "result": "binds"}]}
